According to article doi:10.1101/2025.03.07.641123:

What was measured:
[1] = molecular target: TW1 (DtxR-Geminin coiled-coil-SpyCatcher) (UniProt P0DJL7); experiment: mass photometry
[2] = molecular target: TW2 (TrpR-Geminin coiled-coil-SpyTag-Geminin coiled-coil-MetJ) (UniProt P0A881); experiment: mass photometry

Substance	stoichiometry N [1]	stoichiometry N [2]
TW1 (DtxR-Geminin coiled-coil-SpyCatcher) (from UniProt P0DJL7 2-121; O75496 110-145)	2	–
TW2 (TrpR-Geminin coiled-coil-SpyTag-Geminin coiled-coil-MetJ) (from UniProt P0A881 2-108; O75496 110-145; O75496 110-145; P0A8U6 2-105)	–	2
